Measurements: US20210332135A1 (ANTIBODY BIOPHARM, published 2021)
Numbering of substitutions follows the chain as printed.

Assays:
[1] = target: T1, recombinant CD47 extracellur domain protein (UniProt Q08722 19-139, limits assumed); experiment: ELISA
T1 construct: extracellular domain; ELISA antigen

[2] = target: T2, recombinant HER2 extracellur domain protein (UniProt P04626 23-652); experiment: ELISA
T2 construct: extracellular domain; ELISA antigen

[3] = target: T3, HER2 and CD47 double positive CHO cell pool (UniProt P04626 23-1255; Q08722 19-323, limits assumed); experiment: flow cytometry, double positive against single positive CHO cell pools
T3 construct: whole, on cells; Two separate membrane proteins on one cell, not a complex; also called CD47+HER2+ double positive cells; double targets positive CHO cell

[4] = target: T4, recombinant PD-L1 extracellur domain protein (UniProt Q9NZQ7 19-238, limits assumed); experiment: ELISA
T4 construct: extracellular domain; ELISA antigen
T4 sequence (Q9NZQ7 19-238 limits assumed): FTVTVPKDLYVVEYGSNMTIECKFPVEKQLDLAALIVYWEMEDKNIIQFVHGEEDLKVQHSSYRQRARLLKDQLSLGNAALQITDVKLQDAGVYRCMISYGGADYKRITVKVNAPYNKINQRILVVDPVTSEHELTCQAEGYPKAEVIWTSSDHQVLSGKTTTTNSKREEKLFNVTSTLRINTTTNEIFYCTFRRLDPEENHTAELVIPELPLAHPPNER

[5] = target: T5, PD-L1 and CD47 double positive CHO cell pool (UniProt Q9NZQ7 19-290; Q08722 19-323, limits assumed); experiment: flow cytometry, double positive against single positive CHO cell pools
T5 construct: whole, on cells; Two separate membrane proteins on one cell, not a complex; also called CD47 and PD-L1 double positive cells; double targets positive CHO cell
T5 sequence (Q9NZQ7 19-290 limits assumed, chain 1 of 2): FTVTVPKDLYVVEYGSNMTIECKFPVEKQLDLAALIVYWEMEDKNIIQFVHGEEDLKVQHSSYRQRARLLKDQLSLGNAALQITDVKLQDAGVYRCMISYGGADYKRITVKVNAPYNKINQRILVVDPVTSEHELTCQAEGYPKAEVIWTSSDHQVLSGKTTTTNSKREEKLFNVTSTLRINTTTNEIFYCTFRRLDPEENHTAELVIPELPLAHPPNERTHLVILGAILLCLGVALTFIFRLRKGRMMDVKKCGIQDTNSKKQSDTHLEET
T5 sequence (Q08722 19-323 limits assumed, chain 2 of 2): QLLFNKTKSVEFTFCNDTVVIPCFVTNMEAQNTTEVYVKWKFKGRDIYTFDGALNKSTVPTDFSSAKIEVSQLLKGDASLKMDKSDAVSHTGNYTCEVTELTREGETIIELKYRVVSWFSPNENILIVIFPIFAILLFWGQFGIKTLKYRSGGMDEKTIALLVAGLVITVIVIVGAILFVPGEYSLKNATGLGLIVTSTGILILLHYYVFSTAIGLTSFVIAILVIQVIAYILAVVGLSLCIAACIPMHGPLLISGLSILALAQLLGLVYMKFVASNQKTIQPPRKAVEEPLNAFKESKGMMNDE

T1 sequence (Q08722 19-139 limits assumed): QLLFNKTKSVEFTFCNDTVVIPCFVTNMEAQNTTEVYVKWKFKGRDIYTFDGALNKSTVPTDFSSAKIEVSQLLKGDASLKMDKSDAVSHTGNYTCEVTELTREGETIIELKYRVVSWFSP

B1: AbD068-1, bi-specific GCT Ab against HER2 and CD47 (bispecific antibody, human IgG1, kappa, V domains shown)
VH: QVQLVQSGGGLVQAGGSLRLSCAASGRTFSSYAMAWFRQAPGKEREFVAAISWSGANIYVADSVKGRFTISRDNAKDTVYLQMNSLKPEDTAVYYCAVKLGFAPVEERQYDYWGQGTQVTVSS
VL: not shown
notes: Anti-HER2 single domain on IgG1 heavy chain, SIRPa domain on kappa chain; Fc of IgG1 wild type; Parents named as H16 (H016) and S007; also called ABP366 (AbD066 and AbD068-1)
binding acitivity [1]: > 100 nM | binding acitivity [2]: ~100 nM | fold stronger staining than on the single target positive cells [3]: ~100 fold

B2: AbD036, bi-specific GCT Ab against PD-L1 and CD47 (bispecific antibody, human IgG1, kappa, L234A L235A)
heavy: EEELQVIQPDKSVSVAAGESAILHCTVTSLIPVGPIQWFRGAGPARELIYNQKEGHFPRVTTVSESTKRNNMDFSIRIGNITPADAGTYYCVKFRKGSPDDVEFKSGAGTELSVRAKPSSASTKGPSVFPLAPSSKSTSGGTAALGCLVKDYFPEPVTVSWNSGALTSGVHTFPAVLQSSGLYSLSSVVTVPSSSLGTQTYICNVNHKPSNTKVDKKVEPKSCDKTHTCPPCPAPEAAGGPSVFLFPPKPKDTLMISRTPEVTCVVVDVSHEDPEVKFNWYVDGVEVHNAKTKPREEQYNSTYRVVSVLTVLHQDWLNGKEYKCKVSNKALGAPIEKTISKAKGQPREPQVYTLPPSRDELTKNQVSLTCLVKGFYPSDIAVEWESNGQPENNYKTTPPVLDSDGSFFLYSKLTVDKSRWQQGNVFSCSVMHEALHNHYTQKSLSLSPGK
light: DSPDRPWNPPTFSPALLVVTEGDNATFTCSFSNTSESFVLNWYRMSPSNQTDKLAAFPEDRSQPGQDCRFRVTQLPNGRDFHMSVVRARRNDSGTYLCGAISRAPKAQIKESLRAELRVTERRAEVSSRTVAAPSVFIFPPSDEQLKSGTASVVCLLNNFYPREAKVQWKVDNALQSGNSQESVTEQDSKDSTYSLSSTLTLSKADYEKHKVYACEVTHQGLSSPVTKSFNRGEC
notes: SIRPa domain on IgG1 heavy chain, PD-1 IgV domain on kappa chain; also called ABP336
binding acitivity [4]: > 100 nM | binding acitivity [1]: > 100 nM | fold stronger staining than on the single target positive cells [5]: ~10 fold

B3: AbD037, bi-specific GCT Ab against PD-L1 and CD47 (bispecific antibody, human IgG1, kappa, L234A L235A)
heavy: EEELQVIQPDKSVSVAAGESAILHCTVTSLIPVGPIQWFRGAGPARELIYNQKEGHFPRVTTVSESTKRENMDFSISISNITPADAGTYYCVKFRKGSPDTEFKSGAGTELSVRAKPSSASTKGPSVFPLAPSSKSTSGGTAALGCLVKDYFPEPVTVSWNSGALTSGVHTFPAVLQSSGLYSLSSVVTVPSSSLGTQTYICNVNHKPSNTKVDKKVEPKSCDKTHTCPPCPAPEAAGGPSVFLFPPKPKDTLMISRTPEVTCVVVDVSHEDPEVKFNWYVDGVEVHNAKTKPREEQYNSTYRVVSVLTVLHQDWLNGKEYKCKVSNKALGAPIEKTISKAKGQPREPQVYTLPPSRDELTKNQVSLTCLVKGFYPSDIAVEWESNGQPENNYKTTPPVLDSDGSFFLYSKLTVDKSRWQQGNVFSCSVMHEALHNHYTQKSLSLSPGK
light: B2 light with R103L
notes: SIRPa domain on IgG1 heavy chain, PD-1 IgV domain on kappa chain; Parents named as P048 and S007; also called ABP336
binding acitivity [4]: > 100 nM | binding acitivity [1]: > 100 nM | fold stronger staining than on the single target positive cells [5]: ~10 fold

B4: AbD066, bi-specific GCT Ab against HER2 and CD47 (bispecific antibody, V domains shown)
VH: EVQLVESGGGLVQPGGSLRLSCAASGFNIKDTYIHWVRQAPGKEREWVARIYPTNGYTRYADSVKGRFTISRDNAKDTVYLQMNSLRAEDTAVYYCSRWGGDGFYAMDYWGQGTLVTVSS
VL: ELQVIQPDKSVSVAAGESAILHCTVTSLIPVGPIQWFRGAGPARELIYNQKEGHFPRVTTVSESTKRNNMDFSIRIGNITPADAGTYYCVKFRKGSPDDVEFKSGAGTELSVRA
notes: Anti-HER2 single domain on IgG1 heavy chain, SIRPa domain on kappa chain; Fc of IgG1 wild type; Parents named as H069 and S012; also called ABP366 (AbD066 and AbD068-1)
binding acitivity [1]: > 100 nM
